Reference: patent US20230025732A1 (INNATE PHARMA, published 2023)

Tests used:
[1] = molecular target: T1, cynomolgus (Macaca fascicularis) CD39 on CHO cells (cynomolgus (Macaca fascicularis), UniProt A0A7N9DGH8 1-510); test: flow cytometry titration on CHO cells expressing cynomolgus CD39 (Mediane of Fluo), panel CHO-cyCD39
T1 construct: whole, on cells; also called CHO-cyCD39; cyCD39
T1 sequence: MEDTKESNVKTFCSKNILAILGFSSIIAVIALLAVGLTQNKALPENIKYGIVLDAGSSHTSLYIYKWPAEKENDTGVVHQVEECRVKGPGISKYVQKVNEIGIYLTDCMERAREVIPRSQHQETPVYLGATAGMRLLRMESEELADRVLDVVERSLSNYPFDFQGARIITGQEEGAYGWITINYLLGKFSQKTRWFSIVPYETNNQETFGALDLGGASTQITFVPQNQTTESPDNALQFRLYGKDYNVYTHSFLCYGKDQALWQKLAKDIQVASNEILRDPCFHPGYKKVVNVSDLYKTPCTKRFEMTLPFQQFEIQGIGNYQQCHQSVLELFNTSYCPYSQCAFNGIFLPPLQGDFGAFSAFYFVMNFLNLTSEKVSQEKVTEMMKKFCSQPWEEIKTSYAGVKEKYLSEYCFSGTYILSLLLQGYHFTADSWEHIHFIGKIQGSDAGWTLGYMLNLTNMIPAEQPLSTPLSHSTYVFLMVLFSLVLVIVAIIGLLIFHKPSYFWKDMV
Experimental: Cells were incubated with various concentration of unlabeled anti-CD39 antibody from 30 μg/ml to 5×10⁻⁴ μg/ml, for 30 minutes at 4° C. After washes, cells were incubated with Goat anti-mouse H+L labeled secondary antibody for 30 min at 4° C.

[2] = molecular target: T2, Human CD39-L2, also known as NTPDase6 or ENTPD6 (human, UniProt O75354 61-484, limits assumed); test: ELISA on coated recombinant human CD39-L2, panel huCD39 L2; no legend on the sheet, curve is I-394 by paragraph 85
T2 construct: Recombinant protein coated in ELISA
T2 sequence: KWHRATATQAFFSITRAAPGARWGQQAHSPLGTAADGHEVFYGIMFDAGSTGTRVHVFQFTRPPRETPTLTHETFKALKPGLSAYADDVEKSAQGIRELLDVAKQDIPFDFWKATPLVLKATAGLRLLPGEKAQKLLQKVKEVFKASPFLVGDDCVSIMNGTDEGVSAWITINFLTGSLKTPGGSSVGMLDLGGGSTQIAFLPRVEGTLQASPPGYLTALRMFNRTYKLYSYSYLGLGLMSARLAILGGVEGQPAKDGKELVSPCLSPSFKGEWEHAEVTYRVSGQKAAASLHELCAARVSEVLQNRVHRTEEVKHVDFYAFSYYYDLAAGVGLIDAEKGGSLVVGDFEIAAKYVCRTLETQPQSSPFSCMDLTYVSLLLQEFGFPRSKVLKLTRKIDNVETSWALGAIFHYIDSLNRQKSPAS
Experimental: (§1) Wells were washed in TBS Tween 20, and further saturated 2H at RT in TBS Blocking buffer. Dose range concentration of primary antibody was incubated in TBS blocking buffer for 2 h at RT. Wells were washed in TBS Tween 20. […] Optical density was measured on Enspire™ at OD=450.

[3] = molecular target: T3, Human CD39-L4, also known as NTPDase5 or ENTPD5 (human, UniProt O75356 25-428); test: ELISA on coated recombinant human CD39-L4, panel huCD39 L4; no legend on the sheet, curve is I-394 by paragraph 85
T3 construct: Recombinant protein coated in ELISA
T3 sequence: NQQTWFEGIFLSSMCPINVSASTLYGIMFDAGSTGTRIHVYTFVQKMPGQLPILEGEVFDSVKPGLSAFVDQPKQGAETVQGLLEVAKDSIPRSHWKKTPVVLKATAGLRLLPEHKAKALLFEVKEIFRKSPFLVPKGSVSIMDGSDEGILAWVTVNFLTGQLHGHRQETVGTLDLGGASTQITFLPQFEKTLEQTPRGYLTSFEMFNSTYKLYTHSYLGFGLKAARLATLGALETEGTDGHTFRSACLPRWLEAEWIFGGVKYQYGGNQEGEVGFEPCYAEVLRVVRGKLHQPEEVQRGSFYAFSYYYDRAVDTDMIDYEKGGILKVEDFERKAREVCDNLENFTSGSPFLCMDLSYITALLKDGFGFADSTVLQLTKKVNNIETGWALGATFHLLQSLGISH
Experimental: as §1

CD39 mutant 19 = molecular target: T4, CD39 mutant 19 (human, UniProt P49961 1-510); test: flow cytometry on Hek-293T cells transfected with CD39 mutant 19 (panel M19); antibody concentration not given on the sheet
T4 construct: expressed on Hek-293T cells; also called M19
T4 chain: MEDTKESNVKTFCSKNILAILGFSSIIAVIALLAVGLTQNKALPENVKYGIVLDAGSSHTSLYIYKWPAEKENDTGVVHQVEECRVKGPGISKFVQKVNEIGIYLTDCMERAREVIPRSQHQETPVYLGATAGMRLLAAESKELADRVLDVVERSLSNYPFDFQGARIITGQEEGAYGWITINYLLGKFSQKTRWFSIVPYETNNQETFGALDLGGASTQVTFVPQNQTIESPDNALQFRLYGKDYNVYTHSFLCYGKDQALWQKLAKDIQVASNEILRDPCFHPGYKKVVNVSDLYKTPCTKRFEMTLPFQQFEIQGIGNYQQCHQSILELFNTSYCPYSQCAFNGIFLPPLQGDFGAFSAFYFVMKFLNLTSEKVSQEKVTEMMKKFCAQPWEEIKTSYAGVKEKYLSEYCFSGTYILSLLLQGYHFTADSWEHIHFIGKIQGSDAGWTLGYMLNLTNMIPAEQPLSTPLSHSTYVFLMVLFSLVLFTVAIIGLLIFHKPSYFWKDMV
Text: Mutants were transfected in Hek-293T cells, as shown in the table 1, using numbering of SEQ ID NO: 1. […] Mutant 19 includes substitutions at residues R138, M139 and E142.

EC50 (read off the curve) [1]: ~0.4 µg/mL | binding result [2]: no binding (tested: about 50 µg/ml) | binding result [3]: no binding (tested: about 50 µg/ml) | binding result (CD39 mutant 19): no binding
B1: I-394 (antibody, human IgG1, V domains shown)
VH: EVQLQQSGPELVKPGASVKMSCKASGYTFTDYNMHWVKQSHGRTLEWIGYIVPLNGGSTFNQKFKGRATLTVNTSSRTAYMELRSLTSEDSAAYYCARGGTRFAYWGQGTLVTVSA
VL: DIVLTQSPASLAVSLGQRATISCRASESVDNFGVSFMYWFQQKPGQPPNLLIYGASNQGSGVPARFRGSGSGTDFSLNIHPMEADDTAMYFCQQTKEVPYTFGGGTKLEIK
